B1: (Tn3)6 (designed binder)
chain: GAIEVKDVTDTTALITWAKPWVDPPPLWGCELTYGIKDVPGDRTTIDLQQKHTAYSIGNLKPDTEYEVSLICFDPYGMRSKPAKETFTTGGGGSGGGGSGGGGSGAIEVKDVTDTTALITWAKPWVDPPPLWGCELTYGIKDVPGDRTTIDLQQKHTAYSIGNLKPDTEYEVSLICFDPYGMRSKPAKETFTTGGGGSGGGGSGGGGSGAIEVKDVTDTTALITWAKPWVDPPPLWGCELTYGIKDVPGDRTTIDLQQKHTAYSIGNLKPDTEYEVSLICFDPYGMRSKPAKETFTTGGGGSGGGGSGGGGSGAIEVKDVTDTTALITWAKPWVDPPPLWGCELTYGIKDVPGDRTTIDLQQKHTAYSIGNLKPDTEYEVSLICFDPYGMRSKPAKETFTTGGGGSGGGGSGGGGSGAIEVKDVTDTTALITWAKPWVDPPPLWGCELTYGIKDVPGDRTTIDLQQKHTAYSIGNLKPDTEYEVSLICFDPYGMRSKPAKETFTTGGGGSGGGGSGGGGSGAIEVKDVTDTTALITWAKPWVDPPPLWGCELTYGIKDVPGDRTTIDLQQKHTAYSIGNLKPDTEYEVSLICFDPYGMRSKPAKETFTTGGGGSGGGGSGGGGS
B2: (Tn3)4 (designed binder)
chain: GAIEVKDVTDTTALITWAKPWVDPPPLWGCELTYGIKDVPGDRTTIDLQQKHTAYSIGNLKPDTEYEVSLICFDPYGMRSKPAKETFTTGGGGSGGGGSGGGGSGAIEVKDVTDTTALITWAKPWVDPPPLWGCELTYGIKDVPGDRTTIDLQQKHTAYSIGNLKPDTEYEVSLICFDPYGMRSKPAKETFTTGGGGSGGGGSGGGGSGAIEVKDVTDTTALITWAKPWVDPPPLWGCELTYGIKDVPGDRTTIDLQQKHTAYSIGNLKPDTEYEVSLICFDPYGMRSKPAKETFTTGGGGSGGGGSGGGGSGAIEVKDVTDTTALITWAKPWVDPPPLWGCELTYGIKDVPGDRTTIDLQQKHTAYSIGNLKPDTEYEVSLICFDPYGMRSKPAKETFTTGGGGSGGGGSGGGGS
B3: ELPa-(Tn3)6 (designed binder)
chain: VGVPGVGVPGVGVPGVGVPGVGVPGVGVPGVGVPGVGVPGVGVPGVGVPGVGVPGVGVPGVGVPGVGVPGVGVPGVGVPGVGVPGVGVPGVGVPGVGVPGVGVPGVGVPGVGVPGVGVPGVGVPGVGVPGVGVPGVGVPGVGVPGVGVPGVGVPGVGVPGVGVPGVGVPGVGVPGVGVPGVGVPGVGVPGVGVPGVGVPGVGVPGVGVPGVGVPGVGVPGVGVPGVGVPGVGVPGVGVPGVGVPGVGVPGVGVPGVGVPGVGVPGVGVPGVGVPGVGVPGVGVPGVGVPGVGVPGVGVPGVGVPGVGVPGVGVPGVGVPGVGVPGVGVPGVGVPGVGVPGVGVPGVGVPGVGVPGVGVPGVGVPGVGVPGVGVPGVGVPGVGVPGVGVPGVGVPGVGVPGVGVPGVGVPGVGVPGVGVPGVGVPGVGVPGVGVPGVGVPGVGVPGVGVPGVGVPGVGVPGVGVPGVGVPGVGVPGVGVPGVGVPGVGVPGVGVPGVGVPGVGVPGVGVPGVGVPGVGVPGVGVPGVGVPGVGVPGVGVPGVGVPGVGVPGVGVPGVGVPGVGVPGVGVPGVGVPGVGVPGVGVPGVGVPGVGVPGVGVPGAIEVKDVTDTTALITWAKPWVDPPPLWGCELTYGIKDVPGDRTTIDLQQKHTAYSIGNLKPDTEYEVSLICFDPYGMRSKPAKETFTTGGGGSGGGGSGGGGSGAIEVKDVTDTTALITWAKPWVDPPPLWGCELTYGIKDVPGDRTTIDLQQKHTAYSIGNLKPDTEYEVSLICFDPYGMRSKPAKETFTTGGGGSGGGGSGGGGSGAIEVKDVTDTTALITWAKPWVDPPPLWGCELTYGIKDVPGDRTTIDLQQKHTAYSIGNLKPDTEYEVSLICFDPYGMRSKPAKETFTTGGGGSGGGGSGGGGSGAIEVKDVTDTTALITWAKPWVDPPPLWGCELTYGIKDVPGDRTTIDLQQKHTAYSIGNLKPDTEYEVSLICFDPYGMRSKPAKETFTTGGGGSGGGGSGGGGSGAIEVKDVTDTTALITWAKPWVDPPPLWGCELTYGIKDVPGDRTTIDLQQKHTAYSIGNLKPDTEYEVSLICFDPYGMRSKPAKETFTTGGGGSGGGGSGGGGSGAIEVKDVTDTTALITWAKPWVDPPPLWGCELTYGIKDVPGDRTTIDLQQKHTAYSIGNLKPDTEYEVSLICFDPYGMRSKPAKETFTTGGGGSGGGGSGGGGS
B4: ELPa-(Tn3)4 (designed binder)
chain: VGVPGVGVPGVGVPGVGVPGVGVPGVGVPGVGVPGVGVPGVGVPGVGVPGVGVPGVGVPGVGVPGVGVPGVGVPGVGVPGVGVPGVGVPGVGVPGVGVPGVGVPGVGVPGVGVPGVGVPGVGVPGVGVPGVGVPGVGVPGVGVPGVGVPGVGVPGVGVPGVGVPGVGVPGVGVPGVGVPGVGVPGVGVPGVGVPGVGVPGVGVPGVGVPGVGVPGVGVPGVGVPGVGVPGVGVPGVGVPGVGVPGVGVPGVGVPGVGVPGVGVPGVGVPGVGVPGVGVPGVGVPGVGVPGVGVPGVGVPGVGVPGVGVPGVGVPGVGVPGVGVPGVGVPGVGVPGVGVPGVGVPGVGVPGVGVPGVGVPGVGVPGVGVPGVGVPGVGVPGVGVPGVGVPGVGVPGVGVPGVGVPGVGVPGVGVPGVGVPGVGVPGVGVPGVGVPGVGVPGVGVPGVGVPGVGVPGVGVPGVGVPGVGVPGVGVPGVGVPGVGVPGVGVPGVGVPGVGVPGVGVPGVGVPGVGVPGVGVPGVGVPGVGVPGVGVPGVGVPGVGVPGVGVPGVGVPGVGVPGVGVPGVGVPGVGVPGVGVPGVGVPGVGVPGVGVPGVGVPGGAIEVKDVTDTTALITWAKPWVDPPPLWGCELTYGIKDVPGDRTTIDLQQKHTAYSIGNLKPDTEYEVSLICFDPYGMRSKPAKETFTTGGGGSGGGGSGGGGSGAIEVKDVTDTTALITWAKPWVDPPPLWGCELTYGIKDVPGDRTTIDLQQKHTAYSIGNLKPDTEYEVSLICFDPYGMRSKPAKETFTTGGGGSGGGGSGGGGSGAIEVKDVTDTTALITWAKPWVDPPPLWGCELTYGIKDVPGDRTTIDLQQKHTAYSIGNLKPDTEYEVSLICFDPYGMRSKPAKETFTTGGGGSGGGGSGGGGSGAIEVKDVTDTTALITWAKPWVDPPPLWGCELTYGIKDVPGDRTTIDLQQKHTAYSIGNLKPDTEYEVSLICFDPYGMRSKPAKETFTTGGGGSGGGGSGGGGS

target: TNF-related apoptosis-inducing ligand receptor 2 (TRAILR-2) (human, UniProt O14763 56-440); test: cell-based or functional assay

Binder | EC50, cell viability assay on Colo205 cells (concentration required to kill 50% of the cells) [nM]
B1 | 0.0016
B2 | 0.04
B3 | 0.00078
B4 | 0.08

— US20190345228A1 (DUKE UNIVERSITY, published 2019)
